Laboratory results reported in the DeepSol protein solubility set.

Experiment: soluble on expression in E. coli; label from the status in PepcDB or PDB records

| Sequence | soluble on expression in E. coli |
| --- | --- |
| MILKASKEALKEAVEILKKGGIIVAPTDTLYGILADATNEEAVKRLYKIRRPSGKPFLVLLPDESWLEKLCLDVKEEHKKLLKVEGLTLVFRKTCDKLDYVSKGTLAVRLPQKGFIRDLLSELKKPVVAPSVNPEGKKPAESVEEAYNYFGNKVDLYIDAGVIKGEPSTILDLTEGVKILREGKVKKEEIEKILNRKL | soluble |
| MSLDVAALVSGGVDSSVVVHRLCEEGYKPAIFYIRIGMEDKDGYIDCPAEEDIELTTLIARRYGCPFEVVDLHKEYWERVVSYTVETVRRGLTPNPDMMCNKLIKFGCFEERWGYQFDRIATGHYATTDLLNGKTYLSTAKDPVKDQTDFLAQINFAQISKLMFPIGHLLKSEVRAIANAAGLPSAKRKDSQGICFLGKIDYNDFIERYLGKKEGRIIELETGKVIGRHQGYWFHTIGQRKGLGLSGGPWFVVKKDIKRNIILVSRGYDPDAQYGKTIEMETFDFITEDAYEAGYWNREDATPVTFKIRHTPEFTRGLLYKGEKGYRLESEERIQGIAPGQYCVIYDEDHHLCYGSGMITKGREGHHHHHH | soluble |
| AAIRHITTGTYIARIREEYQQTEVKPELQPMKEALARMTDRAEALIAFVTEQKDQELLDFQARRLVEMTAHAVFGHLLMLAANDDDSFRQSAEVYLRYGQAEQEKIDSYVRAFRPEELTFYSRCSRPE | soluble |
| MRVISGEYGGRRLKALDGDNTRPTTDKVKESIFNMIGPYFDGGMALDLYSGSGGLAIEAVSRGMDKSICIEKNFAALKVIKENIAITKEPEKFEVRKMDANRALEQFYEEKLQFDLVLLDPPYAKQEIVSQLEKMLERQLLTNEAVIVCETDKTVKLPETIGTLKKTRETVYGITQVTIYRQEA | soluble |
| CNFRSTETIVNWVNDHFSKIFSQQVDIESGAVSFHPSVHVIEKNESSTIQAVQFKNREQEARHLIEIINSELNRNPEQTIAVLVRTRTQLPEIISLLRQNNIPYQGTDIDLLANLVHLRDVWSLAHALLFPGNRLSWLSILHSPYVGLGLSDIHCIAQYNSRKSIYHNLLHLDKIQDISEEGRIRANFFIQIMNQALLCRSHSRLSDWIADTLKNLHVEKILDKAQLNDLEQLWMLLDQYEKEGRIPDMNEFLNEFNKLYAQQTTPSRLQIMTIHKSKGLEFDTVILPGLGSQANRGESPMLRWLKLPTQDHGNLLLVSPIKSANQDNCPLYDYLDQLDEEKSAYEAQRLLYVAVTRAKSRLYLLDHSAKSYKSS | not soluble |
| MIGKEEIHRIRELIGAKEGPVLSLYVDVNPAKPENAGRAYALRAKDAIKALEVPGDLSERVLEVLQNQVLEARTAVFFAGEDLFEVLPLQVELPLVNSVKTAFLDEKAGRYLVDGVLAHWGEPFLLPLVYALDEYERYGIVYVDRERWRVFEVFLGEIEEVHDAFLALDTEAWRRLSLDAPGRRFNLGGIARGGAGQDLFAKRLEAWEERFYKALAHELERLSEARGFTRLVLMGPEEHTKLFLGHLPKRLRERVVAELPSLPHPGASPGEVLKRLEPVLEEVERREEVKLLERLEEAYPKAAFGPEVLARVQEGRVEVWVLPWHLEQEVYLCQDFAFADEAQALAYCESPEKKPLAAVLASLAVGYATKLEFVRGEAENRLLERGGMAALLRW | soluble |
| MPFVPVAALKDYVGKDLGHSEWLTIDQERVDQFAECTGDHQFIHVDPEKAAKTPFGGTIAHGFLSLSLIPKLMEGLLVLPEGLKMAVNYGLDTVRFIQPVRVGSRVRLGLTLLDVNEKNPGQWLIKARATLEIEGQEKPAYIAETLSLCFV | not soluble |
| MGSDKIHHHHHHMADTFLFRVHRSQILPALNAVFEAVDPRSNIPILQNVLLSPNAERLRLSGTNMTVEVETSCDLLESASGNPLTLSGKALLDIVKSFSEVAEIEFSFDDLRGQVRVKSGRSRFLLATLHADQFPTIASLASGKSVAVDMPSLISAIARVKYALFDHKDRAYLSGIFIHPEEGENKIAVVAADGHNLAVVRFPCEAGTTFPGAIIPIKAIDAIRRLFGETKASAQVKISDEMIQICCHDVRLTSKLIDAVYPDYDVAIPKDNTSRIIVDAKHLINAVHRVCLVKKDDKRDTIKLVGSNGMLQVSMAATDGEEAVEEIAAEYNGPQIRIGFNGDYLKDALSSIKTTDVAINLLTESSPGLLTPTVGTDELYVVYPRVLPHD | not soluble |
| MNYRELMQKKNVRPYVLMARFGLEKENQRSTREGLLATTEHPTVFGNRSYHPYIQTDFSETQLELITPVANSGTEMLRFLDAIHDVARRSIPEDEMLWPLSMPPQLPTKDEEIKIAKLDQYDAVLYRRYLAKEYGKRKQMVSGIHFNFEYDQALIQQLYDEQSEVTDCKQFKTKVYMKVARNFLRYRWLITYLFGASPVSEDRYFRVYDDQPQEPVRSIRNSTYGYRNHDNVKVSYASLERYLEDIHRMVENGLLSEEKEFYAPVRLRGGKQMSDLPKTGIRYIELRNLDLNPFSRLGIVEDTVDFLHYFMLYLLWTDEKEEADEWVKTGDIFNEQVALGHPHETIKLIAEGDRIFSEMIDMLDALGIRKGKEVVGKYYQQLRNPQDTVSGKMWTIIQENSNSELGNIFGNQYQSMAFERPYQLAGFREMELSTQIFLFDAIQKGLEIEILDEQEQFLKLQHGEHIEYVKNANMTSKDNYVVPLIMENKTVTKKILSAAGFHVPGGEEFSSFIEAQEAHLRYANKAFVVKPKSTNYGLGITIFKEGASLEDFTEALRIAFKEDTAVLIEEFLPGTEYRFFVLDNDVKAIMLRVPANVTGDGKHTVEELVAAKNSDPLRGTNHRAPLELIQLNDLEKLMLKEQGLTIYSVPEKEQIVYLRENSNVSTGGDSIDMTDVIDDSYKQIAIEAVAALGAKICGIDLIIPDKDVKGTRDSLTYGIIEANFNPAMHMHVYPYAGQGRRLTMDVLKLLYPEVVQ | not soluble |
| MDRENILKAVKEARSLAKPRNFTQSLDLIINLKELDLSRPENRLKEQVVLPNGRGKEPKIAVIAKGDLAAQAEEMGLTVIRQDELEELGKNKKMAKKIANEHDFFIAQADMMPLVGKTLGPVLGPRGKMPQPVPANANLTPLVERLKKTVLINTRDKPLFHVLVGNEKMSDEELAENIEAILNTVSRKYEKGLYHVKSAYTKLTMGPPAQIEK | soluble |
| MGSDKIHHHHHHMKTAALFVSKEFEEEAIALVEGANYKVTSIYKLPKSPNVKFYIQYDKLQQIKNDEEISTLIIFEQLKPRHFINIRRELKGKEVLDKILLLLEIFALHAGSKEAKMQIELARLKYELPIIKETYTKSKIGEQQGPLGAGTYGVESTIKFYKRRINKLMKELESIKIFKEKSIESNKRNNIPSIGIVGYTNSGKTSLFNSLTGLTQKVDTKLFTTMSPKRYAIPINNRKIMLVDTVGFIRGIPPQIVDAFFVTLSEAKYSDALILVIDSTFSENLLIETLQSSFEILREIGVSGKPILVTLNKIDKINGDLYKKLDLVEKLSKELYSPIFDVIPISALKRTNLELLRDKIYQLATQLS | not soluble |
| MDKEKVLDKIKKCLALGRSVNEHEAAQALRQAQALMEKYKVNAEDIALSKVSEQKADRKMAFKLAGWQWGVANMIADIFGCKSYQRGKTMMFYGIGNRAETSAYAFDVVYRQISADRRKFLKTCRAGKPSHRTYLADRFCGGWIASAWETVKKFEMSDEEKAIMDGYKKKEYPDMAEARTRDAKSSILQGSKMEYEALTRGMESGKQVKLHYAVNGTGFVKQIGGQT | not soluble |
| MICNNQREFDNSLKCYQTALVTSQWTVRIRNLNWVLQEKVKSLYVEYQIWRGIDQTNKANPNTLRTNLDQVLAQLETFPTASASPIDSGSAGQLTPFHRSHFHPYKDNKRMRFPSNKEGGLCNSLLSSHYEWC | not soluble |
| GSHMPLSSENKQKLQKQVEFYFSDVNVQRDIFLKGKMAENAEGFVSLETLLTFKRVNSVTTDVKEVVEAIRPSEKLVLSEDGLMVRRRDPLP | soluble |
| MHDKMHDTGTRSDMARFNPLHGNPLKSRADVRRALDDSFAPLLPYFSPGGARVALSGTAAHFDRAAADLEGFARPLWGIAPLALSGDTFAHWPLLAKGIANGTDPAHPDYWGDVRQKDQRLVELAAIGFALRLAPQHLWEPLSDAQKENVSRYLLAARERNYADNNWKFFRVMVDMALDHLGIGFDRSLTETFQKELDDFYIADGWYRDGNYRRIDHYIAFAMHFYGLIYARLSKPDDAYAKRYRERARLFAGDFASWFDEDGGALAFGRSMTYRFACGGFWAGLAFADEEALPWGEIKGLYLSHLRWWAEKPIADRDGVLSIGYAYPQLTMSESYNSAGSPYWAFKAFLPLALPESHPFWQAQETLPKVSTNPHPLVHPGMVMMRAKGNVTALSSGQENLAMRGGPEKYAKFAYSSRYGFGVEVDERGFRTNGFDNILAFSDDGLHYRVRETNRKVLMAGANLRATWKPFPDVTVETTLVAAENWHVRLHRITSARALAVAEGGFAINRNDGERDVVSETGGKATADCGTDISAIVDLGSTISRHGVALKALPNTNLINAKTTVPQLRGEIPAGETMLACAVFAGVAGAESERALAAVPACPDLEALDRLFADRGVPVSAMAGEPQLEHHHHHH | not soluble |
| MGSDKIHHHHHHMAGVMSRRLDVDALRALVAIERHGGVTRAAEILGLSQSAVSHKIRRLETSLDCEILTRKANAPMFTTAGQDLLGYARRILGIHDEAVLSLSKSPLQGKIALGMTEDTTCTDLSRILGRFRRLYPEVSVRTQVRMSLVLQEQLSQGALDAAIIQVFQHEVRPADILLFRETLHWVKSRDLVLSAGKPVPFLSFDENCFYRRWGIDVGQDEDTVLETVFECSSAAGIIAGVTAGLGVALLSQRYLQPAMEIVDDKFPKPPDLAYVIRRARVPRNPALETLVREIEAEVKRYGTLQIAV | not soluble |
| PGGPEEQWQRAIHERGEAVCPTCNVVTRKTLVGLKKHMEVCQKLQDALKCQHCRKQFKSKAGLNYHTMAEHSAKPSDAEASEGGE | soluble |
| MGKTSQRKQCDCENPSKPCLSTSIPLRMSSYTFKRPVTKITSHLGNEVRYYQWEETFKKPEQACWQKRLQGLQAYSSAGELLSTSDLAKTLKDLTSTDTVASASDTQATSIDITSVPTLESSSHLANMIPEAGPQILCKEFLVTEQDIINQERKVKIARERLAVALIAHKLASEMETVRGSRKANL | not soluble |
| GSPALDTGTTEEDRLKIDVIDWLVFDPAQRAEALKQGNAIMRKFLASKKHEAAKEVFVKIPQDSIAEIYNQCEEQGMESPLPAEDDNAIREHLCIRAYLEAHETFNEWFKHMNSVPGGSGGSWKGHLDALTADVKEKMYNVLLFVDGGWMVDVREDAKEDHERTHQMVLLRKLCLPMLCFLLHTILHSTGQYQECLQLADMVSSERHKLYLVFSKEELRKLLQKLRESSLMLLDQGLDPLGYEIQL | soluble |
| MRLIAAGEAQNAQQADEDVVQRNIQANRGTNIVRFTAMNDVAGFKQNSARGDQNEDRADRQMQGRQLQEDISNHTNQHHHNTRHQHTAKERHIFAGGQHIRRAAEEHQRRSAQCHSDYVTHSSRQVGVQNWSEDISQKTGKGECGDNPGRLIRRFVGQEHQTIHTHQRQNQTRRWQHQHRTGSCGNRRKGQRQAQQKIGITQHLMGAKQRCTVM | soluble |
| MGSDKIHHHHHHVHLTYENTNEEIIAVKRKPRHQPPHLHNAMEIVCVTKGTLELGVGQELYHMETGDIGVVFPDVIHHYQVFSSEVNEAVFINAPQMIFGRFENVLRNNAPQYPVVKSDVIPDEVYRAVESIIDTGQNDIWVVQAYLQIILARCIPMMKLVEKSKIGSDDIIYRTVSYISANFNKSISLDGMAHDLGVSKFSLSRLFSKTFHSSFNQYVNEARLGYACQRIETTDDTLTEISMDSGFGSLRTFNRVFKEKYRLTPSEYRNKLQI | not soluble |
| MAHHHHHHMSGVVIKKPNLKRLLAGQREELASFQPPVHPIPEYLGSPLPYLSNPYHIRGTLMAVEQEPEPNHEADGGKQLMADIMNERARICLEVEKTLALTCRVLDKAAQNDGELTELARESLARLTVMGEDLSNRMITSRE | not soluble |
